Values joined by “and” are separate entries in the source; they are usually repeats but may differ in a detail not shown here. Equal entries are not always repeated.

One assay has as its target T1, 8D6 Fab.
T1 construct: In SPR it was amine-coupled to a CM5 chip or injected as analyte; also called recombinant 8D6 Fab; anti-IgE antibody Fab (8D6)
In words: SPR; Biacore T200; 8D6 Fab amine-coupled to a CM5 chip; His-tagged IgE-Fc injected at 100 nM to 190 pM (2-fold dilutions) in HBS-P (10 mM HEPES pH 7.4, 150 mM NaCl, 0.005% surfactant P20), 30 uL/min; constants from low and intermediate concentrations. The note with it: both partners purified.

The next assay concerns the target T2, derCD23 (human).
T2 construct: human CD23 (FcεRII), soluble monomeric fragment called derCD23; also called soluble, monomeric CD23 construct; soluble fragment of CD23
T2 sequence (P06734 whole entry, looked up): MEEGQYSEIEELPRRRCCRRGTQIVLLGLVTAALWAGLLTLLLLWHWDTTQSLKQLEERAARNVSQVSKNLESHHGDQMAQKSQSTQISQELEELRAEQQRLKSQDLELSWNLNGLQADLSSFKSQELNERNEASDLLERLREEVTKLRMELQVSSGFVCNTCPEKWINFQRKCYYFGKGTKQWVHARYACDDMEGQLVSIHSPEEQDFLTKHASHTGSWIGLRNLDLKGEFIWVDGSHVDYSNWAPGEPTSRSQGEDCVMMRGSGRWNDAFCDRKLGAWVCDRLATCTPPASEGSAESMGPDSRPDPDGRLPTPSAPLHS
In words: SPR; N-terminally His-tagged IgE-Fc captured with an anti-His-tag antibody (Biacore His Capture Kit); derCD23 injected at 10 to 0.156 uM; HBS-P with 5 mM CaCl2, 25 °C. The note with it: both partners purified. For orientation: Surface plasmon resonance follows binding to a sensor surface in real time, without labels.

T1 sequence (heavy, as listed by the source, chain 1 of 2): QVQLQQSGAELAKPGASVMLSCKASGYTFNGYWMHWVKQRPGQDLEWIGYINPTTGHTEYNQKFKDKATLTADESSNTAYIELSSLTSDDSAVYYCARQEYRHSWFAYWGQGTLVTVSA
T1 sequence (light, as listed by the source, chain 2 of 2): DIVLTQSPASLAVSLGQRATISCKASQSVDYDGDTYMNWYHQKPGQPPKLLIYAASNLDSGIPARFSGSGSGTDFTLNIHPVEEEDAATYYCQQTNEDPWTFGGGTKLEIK

B1: His-tagged IgE-Fc (domain or fragment)
chain: VASRDFTPPTVKILQSSCDGGGHFPPTIQLLCLVSGYTPGTIQITWLEDGQVMDVDLSTASTTQEGELASTQSELTLSQKHWLSDRTYTCQVTYQGHTFEDSTKKCADSNPRGVSAYLSRPSPFDLFIRKSPTITCLVVDLAPSKGTVQLTWSRASGKPVNHSTRKEEKQRNGTLTVTSTLPVGTRDWIEGETYQCRVTHPHLPRALMRSTTKTSGPRAAPEVYAFATPEWPGSRDKRTLACLIQNFMPEDISVQWLHNEVQLPDARHSTTQPRKTKGSGFFVFSRLEVTRAEWEQKDEFICRAVHEAASPSQTVQRAVSVNPGK
modifications: disulfide-linked homodimer; N-glycosylated at Asn394 (high-mannose); N-terminal 6xHis/Xpress tag omitted; C225A, N265Q and N371Q taken as already in the deposited entity; C-terminal end taken from …
In the case of B1, in the assay with 8D6 Fab, the Kd (as a rule, the constant that tells how readily two partners part at equilibrium) was around 20 pM; the koff – broadly, the rate constant with which the complex falls apart – is 8e-05 s⁻¹; the kon (as a rule, a measure of how fast the partners come together) is 5e+06 M⁻¹ s⁻¹. Also, in the assay with derCD23, the Kd was 1.8 µM and 1.7 µM and 1.6 µM.

The record behind these values is PMC6070508, “Structural basis for selective inhibition of immunoglobulin E-receptor interactions by an anti-IgE antibody” (Scientific Reports, 2018).
